{"source": "paper PMC8580823", "target": "Full-length human Nf1-23a (neurofibromin isoform 2) (human) (UniProt P21359)", "assay": "cryo-EM structure; single-particle cryo-EM of purified Nf1-23a at ~0.5 mg/ml in 20 mM Tris pH 8.0, 300 mM NaCl, 2 mM DTT, grids frozen at 4 °C; native sample and sample incubated 90 min with 50 µM ZnCl2; homodimer, no symmetry imposed (C1)", "settings": "remark: other sources report otherwise", "data": [{"substance": "Full-length human Nf1-23a (neurofibromin isoform 2), P21359 1-2839", "values": [{"measurement": "stoichiometry N", "result": 2}]}]}
